Experimental data taken from patent publication US6890900B2, “Methods for treating or preventing diseases of the oral cavity” (Campina B.V., priority 2001, dated 2005).

Tests used:
[1] = tested on: Streptococcus pyogenes ATCC #19615; assay: LF/GMP assay, viable plate count (pour plate) of broth culture; type: cell-based; parameters: key to MIBC: NCF: No Effective Concentration Found; details: 35° C.; for Colony Counts: viable plate count
Description: Bacterial strains used in this study were Pseudomonas aeruginosa ATCC #27853, Streptococcus mutans ATCC #33535, Streptococcus pyogenes ATCC #19615, and Actinobacillus haemophilus ATCC #43717 and an oral swab from a healthy adult. Bacteria were grown on blood/BHT media (Brain Heart Infusion Agar with protease peptone, sodium chloride, glucose, di-sodium phosphate, and agar, Oxoid, Hampshire England, Sheep's Blood) in the presence of 5% CO2 at 35° C. […] The 0.5 McFarland value is approximately equivalent to 1.0×10^8 organisms. One ml of the appropriate bacterial dilution was taken using a sterile pipette and introduced into 8 ml of sterilized BHI broth. […] By pipette, 9 ml of broth was placed into medium test tubes as means of a control and 8 ml test tubes were prepared for the concentration tests). […] This solution was filtered through a 0.45 μm filter. […] Example for calculating 2,500 ppm dilution (1,000 ppm=0.1%): [formula] [formula] [formula] To study the kinetics of LF/GMP binding, each strain of bacteria was taken separately with a sterile pipette and placed into an 8 ml BHI broth test tube, vortexed, and incubated in the presence of 1 ml of LF or GMP for 18-24 hours at 35° C. with 5% CO2. In the combination procedure, 0.5 ml of both LF and […] were taken as 1 ml inoculations. This technique was used to determine the density of living (viable) cells in inoculated broth cultures. It involves plating a bacterial sample and counting the resulting colonies after incubation. A serial dilution of the original broth was taken prior to plating. The serial dilution is necessary to reduce the density of organisms in order to create countable plates. Only plates containing between 25 and 250 colonies are considered countable. Cell densities are traditionally recorded as CFU (colony forming unit)/ml. […] Formula: [formula] The assays required the use of a pour plate technique. The pour plate technique adds a step to the conventional serial dilution. The 1 ml of dilution is added to a warm emulsion of dilute nutrient (BHI) agar to produce an agar overlay in the petri plates. After incubation, the bacterial growth covers the entire plate but individual cellular movement has been restricted by the soft agar overlay. Each colony formed is assumed to have originated from a single CFU. The plates were gently mixed, inverted, and incubated for 18-24 hour at 35° C. Using a control (one broth tube inoculated with a bacterial strain, but no LF), the effectiveness of LF was examined. Each test tube containing a specified amount of LF (50, 100, 250, 500, 1,000 ppm and 3000 ppm) was diluted and plates were poured. After incubating the plates for 24 hours at 35° C. with 5% CO2 (the normal conditions of an oral cavity), the bacterial recovery count was taken and the results were compared to the control. A. haemophilus, S. mutans, S. pyrogenes and an oral culture were tested at 35° C. Pseudomonas aeruginosa was tested at both room temperature and 35° C. with 5% CO2. This was done because P. aeruginosa is not strictly an oral pathogen. It is commonly found in the environment in various conditions. It can be found in the environment and oral intake can cause inflammation in the oral cavity. Most normal oral bacteria are only found in the mouth and are not taken in from outside factors. Therefore, P. aeruginosa is a threat in both temperature settings. Table 1 depicts the minimum inhibitor concentration (MBEC) for each of the bacterial strains at 35° C. S. pyogenes and the oral culture were not effected by LF at any tested concentration. […] (see Table 2).

[2] = tested on: Pseudomonas aeruginosa ATCC #27853; assay: as above; type: cell-based; parameters: key to MIBC: NCF: No Effective Concentration Found; details: for Colony Counts: viable plate count
Description: Bacterial strains used in this study were Pseudomonas aeruginosa ATCC #27853, Streptococcus mutans ATCC #33535, Streptococcus pyogenes ATCC #19615, and Actinobacillus haemophilus ATCC #43717 and an oral swab from a healthy adult. Bacteria were grown on blood/BHT media (Brain Heart Infusion Agar with protease peptone, sodium chloride, glucose, di-sodium phosphate, and agar, Oxoid, Hampshire England, Sheep's Blood) in the presence of 5% CO2 at 35° C. Bacteria were harvested by swabbing inoculated growth plates after 24 hours and diluting the colonies in 9 ml of deionized water (DI water) until a suspension of 0.5 McFarland Turbidity Standard was reached using the nephelometer (McFarland Turbidity Meter). The 0.5 McFarland value is approximately equivalent to 1.0×10^8 organisms. One ml of the appropriate bacterial dilution was taken using a sterile pipette and introduced into 8 ml of sterilized BHI broth. (Preparation of BHI broth: 37 g+1,000 ml DI water, Difco Laboratories. By pipette, 9 ml of broth was placed into medium test tubes as means of a control and 8 ml test tubes were prepared for the concentration tests).
This solution was filtered through a 0.45 μm filter. […] Example for calculating 2,500 ppm dilution (1,000 ppm=0.1%): [formula] [formula] [formula] […]
One mL of each bacterial strain, plus one mL of sialic acid solution (1,000 ppm) were inoculated into test tubes filled with 8 mL of BHI broth. Each test tube was vortexed, incubated for 24 hours at 35° C. with 5% CO2, and then pour plated in BHI agar to obtain a plate count.
This technique was used to determine the density of living (viable) cells in inoculated broth cultures. It involves plating a bacterial sample and counting the resulting colonies after incubation. A serial dilution of the original broth was taken prior to plating. The serial dilution is necessary to reduce the density of organisms in order to create countable plates. Only plates containing between 25 and 250 colonies are considered countable. Cell densities are traditionally recorded as CFU (colony forming unit)/ml. By convention, when 1.0 ml is inoculated onto a plate, the dilution factor (DF) is recorded as tenfold greater. Formula: [formula]
The assays required the use of a pour plate technique. The pour plate technique adds a step to the conventional serial dilution. The 1 ml of dilution is added to a warm emulsion of dilute nutrient (BHI) agar to produce an agar overlay in the petri plates. After incubation, the bacterial growth covers the entire plate but individual cellular movement has been restricted by the soft agar overlay. Each colony formed is assumed to have originated from a single CFU. The plates were gently mixed, inverted, and incubated for 18-24 hour at 35° C. […]

B1: LF: Bovine lactoferrin, iron-binding glycoprotein purified from milk, provided by DMV International (protein, UniProt P24627 20-708, looked up)
Lactotransferrin: APRKNVRWCTISQPEWFKCRRWQWRMKKLGAPSITCVRRAFALECIRAIAEKKADAVTLDGGMVFEAGRDPYKLRPVAAEIYGTKESPQTHYYAVAVVKKGSNFQLDQLQGRKSCHTGLGRSAGWIIPMGILRPYLSWTESLEPLQGAVAKFFSASCVPCIDRQAYPNLCQLCKGEGENQCACSSREPYFGYSGAFKCLQDGAGDVAFVKETTVFENLPEKADRDQYELLCLNNSRAPVDAFKECHLAQVPSHAVVARSVDGKEDLIWKLLSKAQEKFGKNKSRSFQLFGSPPGQRDLLFKDSALGFLRIPSKVDSALYLGSRYLTTLKNLRETAEEVKARYTRVVWCAVGPEEQKKCQQWSQQSGQNVTCATASTTDDCIVLVLKGEADALNLDGGYIYTAGKCGLVPVLAENRKSSKHSSLDCVLRPTEGYLAVAVVKKANEGLTWNSLKDKKSCHTAVDRTAGWNIPMGLIVNQTGSCAFDEFFSQSCAPGADPKSRLCALCAGDDQGLDKCVPNSKEKYYGYTGAFRCLAEDVGDVAFVKNDTVWENTNGESTADWAKNLNREDFRLLCLDGTRKPVTEAQSCHLAVAPNHAVVSRSDRAAHVKQVLLHQQALFGKNGKNCPDKFCLFKSETKNLLFNDNTECLAKLGGRPTYEEYLGTEYVTAIANLKKCSTSPLLEACAFLTR
- Colony Counts ([1]; 50 ppm, 24 h): 5.8 × 10^7
- Colony Counts ([1]; 100 ppm, 24 h): 1.5 × 10^7
- Colony Counts ([1]; 500 ppm, 24 h): 7.8 × 10^7
- Colony Counts ([1]; 3,000 ppm, 24 h): 1.7 × 10^8
- Total Log Reduction ([1]; Lactoferrin/GMP 250/0 ppm (LF alone)): 0 log
- Total Log Reduction ([1]; Lactoferrin/GMP 3,000/0 ppm (LF alone)): 0 log
- # Log Reductions ([1]; at the MIBC, vs control): 0 log
- effect on growth (in words) ([1]; single agent, any tested concentration): not effected
- MIBC ([1]; single agent, 24 h, 5% CO2): NCF
- Colony Counts ([2]; 50 ppm, 35° C., 24 h): 4.6 × 10^8
- Colony Counts ([2]; 100 ppm, 35° C., 24 h): 3.6 × 10^8
- Colony Counts ([2]; 250 ppm, 35° C., 24 h): 2.6 × 10^8
- Colony Counts ([2]; 1,000 ppm, 35° C., 24 h): 3.2 × 10^8
- Colony Counts ([2]; 3,000 ppm, 35° C., 24 h): 1.2 × 10^8
- Total Log Reduction ([2]; Lactoferrin/GMP 250/0 ppm (LF alone), 23° C. (room temperature)): 1 log
- Total Log Reduction ([2]; Lactoferrin/GMP 250/0 ppm (LF alone), 35° C.): 0 log
- Total Log Reduction ([2]; Lactoferrin/GMP 3,000/0 ppm (LF alone), 23° C. (room temperature)): 0 log
- Total Log Reduction ([2]; Lactoferrin/GMP 3,000/0 ppm (LF alone), 35° C.): 0 log
- # Log Reductions ([2]; at the MIBC, vs control, 35° C.): 0 log
- MIBC ([2]; single agent, 35° C., 24 h, 5% CO2): NCF
